# According to paper PMC11514449:
# Where two headings read alike, the source gives them in different places.
# T1: Dmc1 (Saccharomyces cerevisiae) (UniProt P25453)
# T1 sequence: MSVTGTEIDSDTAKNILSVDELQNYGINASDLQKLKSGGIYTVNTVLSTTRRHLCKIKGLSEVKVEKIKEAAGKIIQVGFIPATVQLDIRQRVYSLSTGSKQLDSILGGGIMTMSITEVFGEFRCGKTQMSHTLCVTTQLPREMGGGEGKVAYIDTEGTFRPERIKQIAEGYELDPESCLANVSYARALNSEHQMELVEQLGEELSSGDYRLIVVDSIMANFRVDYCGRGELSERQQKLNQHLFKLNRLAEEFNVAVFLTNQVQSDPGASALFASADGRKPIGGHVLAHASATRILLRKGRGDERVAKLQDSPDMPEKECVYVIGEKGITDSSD
# T2: Dmc1;Mei5-Sae3 complex (Saccharomyces cerevisiae;Saccharomyces cerevisiae) (UniProt P25453+P32489+P89114)
# T2 sequence 1: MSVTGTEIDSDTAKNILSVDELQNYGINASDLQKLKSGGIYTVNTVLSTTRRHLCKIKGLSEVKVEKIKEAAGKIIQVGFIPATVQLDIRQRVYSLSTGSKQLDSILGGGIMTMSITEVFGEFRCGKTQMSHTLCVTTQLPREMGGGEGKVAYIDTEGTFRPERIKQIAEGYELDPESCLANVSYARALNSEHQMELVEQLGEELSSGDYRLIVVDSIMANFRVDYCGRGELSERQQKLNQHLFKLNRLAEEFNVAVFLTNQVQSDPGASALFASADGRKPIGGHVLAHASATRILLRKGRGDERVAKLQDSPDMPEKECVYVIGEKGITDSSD
# T2 sequence 2: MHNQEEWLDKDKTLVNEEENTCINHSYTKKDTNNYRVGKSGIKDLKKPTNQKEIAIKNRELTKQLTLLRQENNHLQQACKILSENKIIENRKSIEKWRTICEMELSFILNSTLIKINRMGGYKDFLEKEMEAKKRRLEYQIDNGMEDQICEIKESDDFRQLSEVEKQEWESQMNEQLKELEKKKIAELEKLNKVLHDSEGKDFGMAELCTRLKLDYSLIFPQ
# T2 sequence 3: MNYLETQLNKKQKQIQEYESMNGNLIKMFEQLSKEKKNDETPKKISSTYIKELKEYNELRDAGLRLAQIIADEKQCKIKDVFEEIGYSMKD
# T3: Dmc1;Mei5-Sae3 complex (Saccharomyces cerevisiae;Saccharomyces …, UniProt P25453;P32489;P89114 1-334;1-222;1-91, |)
# T3 sequence 1: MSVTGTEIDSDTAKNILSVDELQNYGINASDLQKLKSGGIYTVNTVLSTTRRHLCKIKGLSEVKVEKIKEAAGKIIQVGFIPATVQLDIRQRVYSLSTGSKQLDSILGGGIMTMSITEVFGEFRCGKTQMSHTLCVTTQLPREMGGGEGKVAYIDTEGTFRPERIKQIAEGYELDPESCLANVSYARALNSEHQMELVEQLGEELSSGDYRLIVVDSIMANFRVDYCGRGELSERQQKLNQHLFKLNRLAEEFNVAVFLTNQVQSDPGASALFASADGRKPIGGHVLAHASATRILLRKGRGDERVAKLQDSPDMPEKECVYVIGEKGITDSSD
# T3 sequence 2: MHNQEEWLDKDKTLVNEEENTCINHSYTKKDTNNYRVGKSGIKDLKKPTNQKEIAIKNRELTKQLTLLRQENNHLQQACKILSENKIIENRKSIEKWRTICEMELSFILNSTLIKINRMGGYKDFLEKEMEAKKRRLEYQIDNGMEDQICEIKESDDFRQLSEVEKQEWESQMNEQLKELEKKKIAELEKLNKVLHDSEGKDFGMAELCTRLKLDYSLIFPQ
# T3 sequence 3: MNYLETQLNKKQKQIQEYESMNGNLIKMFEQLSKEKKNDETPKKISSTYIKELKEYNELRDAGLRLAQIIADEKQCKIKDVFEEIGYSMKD
# T4: Dmc1 (Saccharomyces cerevisiae, UniProt P25453 1-334)
# T4 sequence: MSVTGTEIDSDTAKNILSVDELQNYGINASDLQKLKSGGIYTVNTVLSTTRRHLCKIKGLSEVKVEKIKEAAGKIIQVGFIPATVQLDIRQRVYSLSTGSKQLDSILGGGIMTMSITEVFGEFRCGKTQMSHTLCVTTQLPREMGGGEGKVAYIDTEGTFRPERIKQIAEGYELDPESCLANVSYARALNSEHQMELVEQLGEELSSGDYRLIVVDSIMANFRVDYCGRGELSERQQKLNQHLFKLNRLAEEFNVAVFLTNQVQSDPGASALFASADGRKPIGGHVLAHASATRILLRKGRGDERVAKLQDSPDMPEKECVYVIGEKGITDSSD
# Tests used:
# [1] = biological target: T1, Dmc1 (Saccharomyces cerevisiae); test: smFRET, RPA displacement; details: internal Cy3 between T12 and T18
# [2] = biological target: T2, Dmc1;Mei5-Sae3 complex (Saccharomyces cerevisiae;Saccharomyces cerevisiae); test: smFRET + GFP colocalization; details: internal Cy3 between T12 and T21
# Dmc1;Mei5-Sae3 complex [3] = biological target: T3, Dmc1;Mei5-Sae3 complex; test: nuclease protection
# Dmc1 [4] = biological target: T4, Dmc1; test: smFRET
# RPA [5] = biological target: T5, RPA (Saccharomyces cerevisiae, UniProt P22336;P26754;P26755 1-621;1-273;1-122); test: EMSA
# RPA-GFP (Rfa2-eGFP) = RPA-GFP (Rfa2-eGFP) (Saccharomyces cerevisiae, UniProt P22336;P26754;P26755 1-621;1-273;1-122); test: EMSA
# RPA [6] = biological target: T5, RPA; test: smFRET
# Dmc1 [7] = biological target: T4, Dmc1; test: smFRET; remark: listed apart in the source
# Dmc1;Mei5-Sae3 complex [8] = biological target: T3, Dmc1;Mei5-Sae3 complex; test: smFRET
# T5 sequence (P22336 whole entry, chain 1 of 3): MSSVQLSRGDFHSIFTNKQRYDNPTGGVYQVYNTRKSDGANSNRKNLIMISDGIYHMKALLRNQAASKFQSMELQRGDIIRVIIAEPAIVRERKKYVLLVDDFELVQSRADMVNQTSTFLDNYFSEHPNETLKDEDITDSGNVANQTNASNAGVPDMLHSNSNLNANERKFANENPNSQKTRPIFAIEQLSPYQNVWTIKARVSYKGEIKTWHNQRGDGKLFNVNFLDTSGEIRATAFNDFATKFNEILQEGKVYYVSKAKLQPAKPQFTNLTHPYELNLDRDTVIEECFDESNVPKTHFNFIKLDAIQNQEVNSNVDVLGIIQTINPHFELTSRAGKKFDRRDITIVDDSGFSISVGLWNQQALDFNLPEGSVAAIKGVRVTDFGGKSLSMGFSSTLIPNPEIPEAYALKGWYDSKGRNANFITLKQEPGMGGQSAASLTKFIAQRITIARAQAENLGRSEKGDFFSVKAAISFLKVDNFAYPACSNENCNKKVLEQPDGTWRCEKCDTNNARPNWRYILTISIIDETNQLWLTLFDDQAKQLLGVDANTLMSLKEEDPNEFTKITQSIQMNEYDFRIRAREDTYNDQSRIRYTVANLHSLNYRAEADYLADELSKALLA
# T5 sequence (P26754 whole entry, chain 2 of 3): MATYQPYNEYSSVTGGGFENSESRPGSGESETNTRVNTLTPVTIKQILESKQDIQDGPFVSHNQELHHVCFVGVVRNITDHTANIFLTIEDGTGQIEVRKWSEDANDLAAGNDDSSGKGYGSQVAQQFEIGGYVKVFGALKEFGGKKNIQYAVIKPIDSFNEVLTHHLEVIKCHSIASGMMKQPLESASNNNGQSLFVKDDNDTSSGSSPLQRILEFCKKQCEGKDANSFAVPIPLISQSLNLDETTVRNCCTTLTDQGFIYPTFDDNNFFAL
# T5 sequence (P26755 whole entry, chain 3 of 3): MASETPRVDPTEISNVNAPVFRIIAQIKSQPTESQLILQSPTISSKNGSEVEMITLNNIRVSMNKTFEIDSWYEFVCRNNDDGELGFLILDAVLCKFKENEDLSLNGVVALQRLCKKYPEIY
# RPA-GFP (Rfa2-eGFP), sequence (P22336 whole entry, chain 1 of 3): as the sequence (P22336 whole entry, chain 1 of 3) above
# RPA-GFP (Rfa2-eGFP), sequence (P26754 whole entry, chain 2 of 3): as the sequence (P26754 whole entry, chain 2 of 3) above
# RPA-GFP (Rfa2-eGFP), sequence (P26755 whole entry, chain 3 of 3): as the sequence (P26755 whole entry, chain 3 of 3) above
molecule,measurement,setting,value
TGGCGACGGCAGCGAGGCTTTTTTTTTTTTTTTTTTTTTTTTTTTTTT / GCCTCGCTGCCGTCGCCA [dT12+18],Kd,[1],1900 nM
TGGCGACGGCAGCGAGGCTTTTTTTTTTTTTTTTTTTTTTTTTTTTTTTTT / GCCTCGCTGCCGTCGCCA [dT12+21],binding signal (% RPA displaced),[2],50
Oligo 1 (80-mer) (ssDNA) DNA: TTATGTTCATTTTTTATATCCTTTACTTTATTTTCTCTGTTTATTCATTTACTTATTTTGTATTATCCTTATCTTATTTA,binding result,Dmc1;Mei5-Sae3 complex [3],binds
dT7 (mixed) DNA 1: TGGCGACGCAGCGAGGCTTTTTTT DNA 2: GCCTCGCTGCCGTCGCCA,Kd,Dmc1 [4],1720 ± 77 nM
Oligo 4 (90-mer) (ssDNA) DNA: AAATCAATCTAAAGTATATATGAGTAAACTTGGTCTGACAGTTACCAATGCTTAATCAGTGAGGCACCTATCTCAGCGATCTGTCTATTT,binding result,RPA [5],binds
same,binding result,RPA-GFP (Rfa2-eGFP),binds
dT9 (mixed) DNA 1: TGGCGAGCAGCGAGGCTTTTTTTTT DNA 2: GCCTCGCTGCCGTCGCCA,binding result,RPA [6],binds
same,Kd,Dmc1 [7],1400 ± 39 nM
dT13 (mixed) DNA 1: TGGCGACGGCAGCGAGGCTTTTTTTTTTTTT DNA 2: GCCTCGCTGCCGTCGCCA,binding result,Dmc1;Mei5-Sae3 complex [8],binds
